{
  "source": "patent US7153654",
  "target": "anti-hCG monoclonal antibody from Organon Teknika",
  "test": "competition: hCG displaces FpepT (5.5×10^-8 M) from anti-hCG Mab (4.5×10^-8 M), fluorescence EX=561 nm EM=590 nm; K1 of the fit",
  "note": "pKd: −log10 of the molar value.",
  "data": [
    {"substance": "human chorionic gonadotrophin (hCG) (from UniProt P01215 25-116; P0DN86 21-165) (ligand)", "values": [
      {"measurement": "pKd", "result": 9.31}
    ]}
  ]
}
